The values that follow come from patent publication US20230382991A1.

Values joined by “and” are separate entries in the source; they are usually repeats but may differ in a detail not shown here. Equal values may be shown once.

Experiment [1] has as its target cynomolgus macaque LILRB4 expressed on stably transduced HEK293T cells (cynomolgus macaque).
The target in experiment [2] is cynomolgus macaque LILRB2.1 expressed on stably transduced HEK293T cells (cynomolgus macaque).
Experiment [3] concerns the target cynomolgus macaque LILRB1.2 expressed on stably transduced HEK293T cells (cynomolgus macaque).

Consider “cynomolgus macaque Mafa-A1*063 SIV gag GW9 (…)-APC tetramer (peptide-MHC)”, for which the % cells in the tetramer+ gate is 0.13% in experiment [1]; 73.5% and 71% in experiment [2]; 51.7% and 53% in experiment [3].
